Patent US20210206841A1 (RESEARCH INSTITUTE AT NATIONWIDE CHILDREN S HOSPITAL, published 2021)

T1: native IHFNTHI (integration host factor of nontypeable Haemophilus influenzae) (nontypeable Haemophilus influenzae …, UniProt P43723 1-96; P43724 1-94)
T1 construct: also called NTHI IHF
T1 sequence 1: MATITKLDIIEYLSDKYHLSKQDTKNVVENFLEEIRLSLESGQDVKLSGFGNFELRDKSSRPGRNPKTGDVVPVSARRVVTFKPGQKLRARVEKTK
T1 sequence 2: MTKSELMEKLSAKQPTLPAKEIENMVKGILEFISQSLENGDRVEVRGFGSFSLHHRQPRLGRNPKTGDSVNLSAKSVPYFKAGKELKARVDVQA

T2: tip-chimeric peptide IhfA5-mIhfB4NTHI (nontypeable Haemophilus influenzae …)
T2 construct: also called IHF(NTHI) tip chimeric peptide; IHFNTHI tip chimeric peptide
T2 peptide: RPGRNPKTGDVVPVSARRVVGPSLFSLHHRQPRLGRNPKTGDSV

T3: tail-chimeric peptide IhfA3-IhfB2NTHI (nontypeable Haemophilus influenzae …)
T3 construct: also called IHF(NTHI) tail chimeric peptide; IHFNTHI tail chimeric peptide
T3 peptide: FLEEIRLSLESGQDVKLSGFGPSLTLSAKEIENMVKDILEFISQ


How the values were obtained:
[1] = biological target: T1, native IHFNTHI (integration host factor …); experiment: SPR Biacore 3000, IHFNTHI immobilized, HuMab as analyte
[2] = biological target: T2, tip-chimeric peptide IhfA5-mIhfB4NTHI; experiment: SPR Biacore 3000, peptide immobilized, HuMab as analyte
[3] = biological target: T2, tip-chimeric peptide IhfA5-mIhfB4NTHI; experiment: direct ELISA #2, peptide coated (curves reaching equilibrium)
[4] = biological target: T1, native IHFNTHI (integration host factor …); experiment: SPR Biacore 3000, HuMab immobilized, IHFNTHI as analyte
[5] = biological target: T2, tip-chimeric peptide IhfA5-mIhfB4NTHI; experiment: SPR Biacore 3000, HuMab immobilized, peptide as analyte
[6] = biological target: T2, tip-chimeric peptide IhfA5-mIhfB4NTHI; experiment: direct ELISA #1, peptide coated (curves not reaching equilibrium)
[7] = biological target: T1, native IHFNTHI (integration host factor …); experiment: SPR Biacore 3000, HuMab immobilized, IHFNTHI as analyte; remark: listed apart in the source
[8] = biological target: T3, tail-chimeric peptide IhfA3-IhfB2NTHI; experiment: SPR Biacore 3000, peptide immobilized, HuMab as analyte
[9] = biological target: T3, tail-chimeric peptide IhfA3-IhfB2NTHI; experiment: SPR Biacore 3000, HuMab immobilized, peptide as analyte
[10] = biological target: T3, tail-chimeric peptide IhfA3-IhfB2NTHI; experiment: direct ELISA #2, peptide coated (curves reaching equilibrium)
[11] = biological target: T3, tail-chimeric peptide IhfA3-IhfB2NTHI; experiment: direct ELISA #1, peptide coated (curves not reaching equilibrium)

Binder | Kd [1] [nM] | koff [1] [s⁻¹] | kon [1] [M⁻¹ s⁻¹] | Kd [2] [nM] | koff [2] [s⁻¹] | kon [2] [M⁻¹ s⁻¹] | EC50 [3] [µg/mL] | Kd [4] [nM] | koff [4] [s⁻¹] | kon [4] [M⁻¹ s⁻¹] | Kd [5] [nM] | koff [5] [s⁻¹] | kon [5] [M⁻¹ s⁻¹] | EC50 [6] [µg/mL] | other results
humanized anti-tip monoclonal antibody, heavy chain SEQ ID NO: 1 and light chain SEQ ID NO: 9 (antibody, V domains shown, also called H10210 (1F8.F1 Humanized HC1) + L10212 (1F8.F1 Humanized LC3)) VH: EVKLVESGGGLVQPGGSLRLSCAASGFTFRTYAMSWVRQAPGKGLEWVATIGSDRRHTYYPDSVKGRFTISRDNAKNTLYLQMNSLRAEDTAVYYCVGPYDGYYGEFDYWGQGTLVTVSS VL: DVVMTQSPDSLAVSLGERATINCKSSQSLLDSDGKTFLNWLQQKPGQPPKRLIYLVSKLDSGVPDRFSGSGSGTDFTLTISSLQAEDVAVYYCWQGTHFPYTFGQGTKLEIKR | 24 | 0.16 | 6.5e+06 | 0.3 | 1.3e-05 | 40000 | 0.055 | 0.6 | 0.00037 | 630000 | 152 | 0.00038 | 2500 | 0.032 | –
humanized anti-tip monoclonal antibody, heavy chain SEQ ID NO: 2 and light chain SEQ ID NO: 9 (antibody, V domains shown, also called H10211 (1F8.F1 Humanized HC2) + L10212 (1F8.F1 Humanized LC3)) VH: EVQLVESGGGLVQPGGSLRLSCAASGFTFRTYAMSWVRQAPGKGLEWVATIGSDRRHTYYPDSVKGRFTISRDNSKNTLYLQMNSLRAEDTAVYYCVGPYDGYYGEFDYWGQGTLVTVSS VL: DVVMTQSPDSLAVSLGERATINCKSSQSLLDSDGKTFLNWLQQKPGQPPKRLIYLVSKLDSGVPDRFSGSGSGTDFTLTISSLQAEDVAVYYCWQGTHFPYTFGQGTKLEIKR | 125 | 0.0017 | – | 4 | 1.2e-05 | 3700 | 0.0453 | 62 | 0.00045 | 7200 | 23 | 7.4e-05 | 3500 | 0.027 | –
humanized anti-tip monoclonal antibody, heavy chain SEQ ID NO: 3 and light chain SEQ ID NO: 7 (antibody, V domains shown, also called H10212 (1F8.F1 Humanized HC3) + L10210 (1F8.F1 Humanized LC1)) VH: EVKLVQSGAEVKKPGASVKVSCKASGFTFRTYAMSWVRQAPGQRLEWVATIGSDRRHTYYPDKFQGRVTITRDNAKNTLYMELSSLRSEDTAVYYCVGPYDGYYGEFDYWGQGTLVTVSS VL: DVVMTQSPLSLPVTLGQPASISCRSSQSLLDSDGKTFLNWLQQRPGQSPRRLIYLVSKLDSGVPDRFSGSGSGTDFTLKISRVEAEDVGVYYCWQGTHFPYTFGQGTKLEIKR | 825 | 0.00011 | 140 | 8 | 0.0004 | 48000 | 0.0858 | 6 | 0.0004 | 66000 | 29 | 0.0016 | 54000 | 0.075 | –
humanized anti-tip monoclonal antibody, heavy chain SEQ ID NO: 3 and light chain SEQ ID NO: 9 (antibody, V domains shown, also called H10212 (1F8.F1 Humanized HC3) + L10212 (1F8.F1 Humanized LC3)) VH: EVKLVQSGAEVKKPGASVKVSCKASGFTFRTYAMSWVRQAPGQRLEWVATIGSDRRHTYYPDKFQGRVTITRDNAKNTLYMELSSLRSEDTAVYYCVGPYDGYYGEFDYWGQGTLVTVSS VL: DVVMTQSPDSLAVSLGERATINCKSSQSLLDSDGKTFLNWLQQKPGQPPKRLIYLVSKLDSGVPDRFSGSGSGTDFTLTISSLQAEDVAVYYCWQGTHFPYTFGQGTKLEIKR | 3400 | 0.016 | 4600 | 3 | 0.00021 | 79000 | 0.111 | 1600 | 0.0027 | 1700 | 200 | 0.0019 | 9500 | 0.035 | –
humanized anti-tip monoclonal antibody, heavy chain SEQ ID NO: 1 and light chain SEQ ID NO: 7 (antibody, V domains shown, also called HuTipMab; TP-21949) VH: EVKLVESGGGLVQPGGSLRLSCAASGFTFRTYAMSWVRQAPGKGLEWVATIGSDRRHTYYPDSVKGRFTISRDNAKNTLYLQMNSLRAEDTAVYYCVGPYDGYYGEFDYWGQGTLVTVSS VL: DVVMTQSPLSLPVTLGQPASISCRSSQSLLDSDGKTFLNWLQQRPGQSPRRLIYLVSKLDSGVPDRFSGSGSGTDFTLKISRVEAEDVGVYYCWQGTHFPYTFGQGTKLEIKR | 17 | 9e-05 | 5400 | 7 | 0.00022 | 31000 | 0.0704 | 10 | 1.4e-05 | 1400 | 76 | 0.00034 | 4500 | 0.06 | –
humanized anti-tip monoclonal antibody, heavy chain SEQ ID NO: 2 and light chain SEQ ID NO: 7 (antibody, V domains shown, also called H10211 (1F8.F1 Humanized HC2) + L10210 (1F8.F1 Humanized LC1)) VH: EVQLVESGGGLVQPGGSLRLSCAASGFTFRTYAMSWVRQAPGKGLEWVATIGSDRRHTYYPDSVKGRFTISRDNSKNTLYLQMNSLRAEDTAVYYCVGPYDGYYGEFDYWGQGTLVTVSS VL: DVVMTQSPLSLPVTLGQPASISCRSSQSLLDSDGKTFLNWLQQRPGQSPRRLIYLVSKLDSGVPDRFSGSGSGTDFTLKISRVEAEDVGVYYCWQGTHFPYTFGQGTKLEIKR | 4400 | 0.0014 | – | 144 | 0.0026 | 18000 | 0.062 | 0.6 | 0.0004 | 640000 | 527 | 0.00015 | 280 | 0.049 | –
humanized anti-tip monoclonal antibody, heavy chain SEQ ID NO: 1 and light chain SEQ ID NO: 8 (antibody, V domains shown, also called H10210 (1F8.F1 Humanized HC1) + L10211 (1F8.F1 Humanized LC2)) VH: EVKLVESGGGLVQPGGSLRLSCAASGFTFRTYAMSWVRQAPGKGLEWVATIGSDRRHTYYPDSVKGRFTISRDNAKNTLYLQMNSLRAEDTAVYYCVGPYDGYYGEFDYWGQGTLVTVSS VL: DVVMTQSPLSLPVTLGQPASISCRSSQSLLDSDGKTFLNWLQQRPGQSPRRLIYLVSKRDSGVPDRFSGSGSGTDFTLKISRVEAEDVGVYYCWQGTHFPYTFGQGTKLEIKR | 40 | 0.006 | 150000 | 0.3 | 1.1e-05 | 42000 | 0.0644 | 0.2 | 0.00032 | 1.4e+06 | 21 | 0.00037 | 17000 | 0.066 | –
humanized anti-tip monoclonal antibody, heavy chain SEQ ID NO: 2 and light chain SEQ ID NO: 8 (antibody, V domains shown, also called H10211 (1F8.F1 Humanized HC2) + L10211 (1F8.F1 Humanized LC2)) VH: EVQLVESGGGLVQPGGSLRLSCAASGFTFRTYAMSWVRQAPGKGLEWVATIGSDRRHTYYPDSVKGRFTISRDNSKNTLYLQMNSLRAEDTAVYYCVGPYDGYYGEFDYWGQGTLVTVSS VL: DVVMTQSPLSLPVTLGQPASISCRSSQSLLDSDGKTFLNWLQQRPGQSPRRLIYLVSKRDSGVPDRFSGSGSGTDFTLKISRVEAEDVGVYYCWQGTHFPYTFGQGTKLEIKR | 354 | 0.00015 | 420 | 13 | 0.00028 | 22000 | 0.0402 | 9 | 0.00059 | 70000 | 257 | 7.7e-05 | 300 | 0.055 | –
humanized anti-tail monoclonal antibody, heavy chain SEQ ID NO: 4 and light chain SEQ ID NO: 10 (antibody, V domains shown, also called HuTailMab; TP-21958) VH: EVQLVESGGGLVKPGGSLRLSCAASGFTFSRYGMSWVRQAPGKGLEWVATISSGGSYTYYTDSVKGRFTISRDNAKNSLYLQMNSLRAEDTAVYYCERHGGDGYWYFDVWGQGTMVTVSS VL: DIQMTQSPSSLSASVGDRVTITCRASQDISNYLNWYQQKPGKAVKLLIYYTSRLHSGVPSRFSGSGSGTDYTLTISSLQPEDFATYFCQQGNPLRTFGGGTKVEIKR | – | – | – | – | – | – | – | – | – | – | – | – | – | – | Kd [7]: ~5.6 nM; koff [7]: 0.00043 s⁻¹; kon [7]: 77000 M⁻¹ s⁻¹; Kd [8]: 4.3 nM; koff [8]: 0.00064 s⁻¹; kon [8]: 150000 M⁻¹ s⁻¹; Kd [9]: 29.6 nM; koff [9]: 0.00033 s⁻¹; kon [9]: 11000 M⁻¹ s⁻¹; EC50 [10]: 0.0427 µg/mL; EC50 [11]: 0.01 µg/mL
humanized anti-tail monoclonal antibody, heavy chain SEQ ID NO: 4 and light chain SEQ ID NO: 12 (antibody, V domains shown, also called H10213 (11E7.C7 Humanized HC1) + L10215 (11E7.C7 Humanized LC3)) VH: EVQLVESGGGLVKPGGSLRLSCAASGFTFSRYGMSWVRQAPGKGLEWVATISSGGSYTYYTDSVKGRFTISRDNAKNSLYLQMNSLRAEDTAVYYCERHGGDGYWYFDVWGQGTMVTVSS VL: DIVMTQSPATLSLSPGERATLSCRASQDISNYLNWYQQKPGQAVRLLIYYTSRLHSGIPARFSGSGSGTDYTLTISSLEPEDFAVYFCQQGNPLRTFGGGTKVEIKR | – | – | – | – | – | – | – | – | – | – | – | – | – | – | Kd [8]: 5.1 nM; koff [8]: 0.00056 s⁻¹; kon [8]: 110000 M⁻¹ s⁻¹; EC50 [10]: 0.0404 µg/mL; EC50 [11]: 0.012 µg/mL
humanized anti-tail monoclonal antibody, heavy chain SEQ ID NO: 4 and light chain SEQ ID NO: 11 (antibody, V domains shown, also called H10213 (11E7.C7 Humanized HC1) + L10214 (11E7.C7 Humanized LC2)) VH: EVQLVESGGGLVKPGGSLRLSCAASGFTFSRYGMSWVRQAPGKGLEWVATISSGGSYTYYTDSVKGRFTISRDNAKNSLYLQMNSLRAEDTAVYYCERHGGDGYWYFDVWGQGTMVTVSS VL: DIQMTQSPSSLSASVGDRVTITCRASQDISNYLNWYQQKPGKAVKLLIYYTSRLHSGVPSRFSGSGSGTDYTLTISSLQPEDFATYYCQQGNPLRTFGGGTKVEIKR | – | – | – | – | – | – | – | – | – | – | – | – | – | – | Kd [7]: ~5.3 nM; koff [7]: 0.00053 s⁻¹; kon [7]: 100000 M⁻¹ s⁻¹; Kd [8]: 4.9 nM; koff [8]: 0.00068 s⁻¹; kon [8]: 140000 M⁻¹ s⁻¹; Kd [9]: 62.2 nM; koff [9]: 0.00027 s⁻¹; kon [9]: ~4300 M⁻¹ s⁻¹; EC50 [10]: 0.0408 µg/mL; EC50 [11]: 0.011 µg/mL
